Assay results published in patent publication US20250262210A1 (TRUSTEES OF COLUMBIA UNIVERSITY IN THE CITY OF NEW YORK, published 2025).

Tests used:
Assay in all cases: IP/MS, LZTR1 wild type-FLAG, U87
[1] = molecular target: T1, USP47 (human, UniProt Q96K76 1-1375, limits assumed)
T1 sequence (looked up): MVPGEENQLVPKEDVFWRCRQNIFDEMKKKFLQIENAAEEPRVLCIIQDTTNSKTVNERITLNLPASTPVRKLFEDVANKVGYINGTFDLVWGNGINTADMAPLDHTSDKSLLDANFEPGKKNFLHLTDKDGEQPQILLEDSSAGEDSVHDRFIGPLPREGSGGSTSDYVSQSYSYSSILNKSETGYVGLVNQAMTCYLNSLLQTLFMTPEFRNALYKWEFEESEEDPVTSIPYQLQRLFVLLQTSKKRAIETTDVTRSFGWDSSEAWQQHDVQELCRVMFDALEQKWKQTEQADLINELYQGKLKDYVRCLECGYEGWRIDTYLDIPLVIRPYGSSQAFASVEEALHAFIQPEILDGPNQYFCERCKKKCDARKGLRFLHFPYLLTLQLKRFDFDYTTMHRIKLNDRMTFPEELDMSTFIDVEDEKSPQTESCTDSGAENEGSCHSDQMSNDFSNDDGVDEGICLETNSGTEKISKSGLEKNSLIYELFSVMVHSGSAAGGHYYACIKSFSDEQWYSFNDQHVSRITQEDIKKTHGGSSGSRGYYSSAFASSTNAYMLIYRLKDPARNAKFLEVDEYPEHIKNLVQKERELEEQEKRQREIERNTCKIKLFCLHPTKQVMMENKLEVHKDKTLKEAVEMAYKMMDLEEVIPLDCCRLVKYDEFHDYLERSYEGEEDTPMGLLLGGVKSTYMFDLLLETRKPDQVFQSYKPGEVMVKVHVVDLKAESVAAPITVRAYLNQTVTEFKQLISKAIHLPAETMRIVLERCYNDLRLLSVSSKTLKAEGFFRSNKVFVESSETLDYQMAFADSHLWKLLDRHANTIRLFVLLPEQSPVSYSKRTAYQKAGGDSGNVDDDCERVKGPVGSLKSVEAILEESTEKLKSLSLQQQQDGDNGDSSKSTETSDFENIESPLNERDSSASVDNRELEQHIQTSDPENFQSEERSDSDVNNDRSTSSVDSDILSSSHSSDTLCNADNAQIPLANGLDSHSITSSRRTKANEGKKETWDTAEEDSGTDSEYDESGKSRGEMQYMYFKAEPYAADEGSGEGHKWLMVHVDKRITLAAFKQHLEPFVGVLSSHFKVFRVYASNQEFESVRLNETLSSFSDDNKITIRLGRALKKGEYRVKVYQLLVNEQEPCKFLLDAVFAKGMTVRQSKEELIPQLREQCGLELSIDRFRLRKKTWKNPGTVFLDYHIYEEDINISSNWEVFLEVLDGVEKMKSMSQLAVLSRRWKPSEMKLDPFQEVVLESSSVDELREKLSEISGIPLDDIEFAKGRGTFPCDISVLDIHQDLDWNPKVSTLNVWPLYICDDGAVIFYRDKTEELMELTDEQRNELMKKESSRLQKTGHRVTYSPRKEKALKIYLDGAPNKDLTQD
Outline: (§1)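 Read-out: spectral counts from LC-MS/MS (Orbitrap Fusion) after MaxQuant identification. Variable modifications were Met oxidation, protein N-terminal acetylation and N/Q deamidation.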

[2] = molecular target: T2, EMC1 (human, UniProt Q8N766 23-993, limits assumed)
T2 sequence (looked up): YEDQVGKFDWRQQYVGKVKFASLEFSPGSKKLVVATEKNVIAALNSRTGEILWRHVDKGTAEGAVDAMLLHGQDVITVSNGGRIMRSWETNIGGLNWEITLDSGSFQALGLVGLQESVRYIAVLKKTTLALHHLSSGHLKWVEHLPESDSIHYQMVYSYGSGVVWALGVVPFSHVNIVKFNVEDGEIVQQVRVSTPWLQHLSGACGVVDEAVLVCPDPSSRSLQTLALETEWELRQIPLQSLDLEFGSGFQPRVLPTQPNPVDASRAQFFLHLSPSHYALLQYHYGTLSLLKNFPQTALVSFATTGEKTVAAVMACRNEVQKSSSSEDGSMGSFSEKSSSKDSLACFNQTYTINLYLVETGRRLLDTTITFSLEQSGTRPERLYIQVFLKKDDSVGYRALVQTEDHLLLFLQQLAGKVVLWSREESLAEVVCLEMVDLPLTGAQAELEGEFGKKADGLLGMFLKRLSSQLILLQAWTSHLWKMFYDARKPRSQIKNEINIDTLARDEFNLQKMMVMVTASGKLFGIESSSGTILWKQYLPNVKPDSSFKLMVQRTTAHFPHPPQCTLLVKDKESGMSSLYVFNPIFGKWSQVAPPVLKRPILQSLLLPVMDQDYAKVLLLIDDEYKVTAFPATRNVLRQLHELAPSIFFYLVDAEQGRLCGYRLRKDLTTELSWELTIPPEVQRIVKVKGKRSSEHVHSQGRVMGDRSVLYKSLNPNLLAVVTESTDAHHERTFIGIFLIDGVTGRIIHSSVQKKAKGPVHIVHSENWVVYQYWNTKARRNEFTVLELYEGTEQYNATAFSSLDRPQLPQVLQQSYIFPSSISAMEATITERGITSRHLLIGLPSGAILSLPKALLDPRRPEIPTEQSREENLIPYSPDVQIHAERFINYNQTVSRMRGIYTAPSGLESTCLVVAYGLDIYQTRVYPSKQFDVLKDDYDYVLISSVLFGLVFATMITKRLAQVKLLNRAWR
Outline: as §1

[3] = molecular target: MTR (human, UniProt Q99707 1-1265, limits assumed)
MTR, sequence (Q99707 whole entry): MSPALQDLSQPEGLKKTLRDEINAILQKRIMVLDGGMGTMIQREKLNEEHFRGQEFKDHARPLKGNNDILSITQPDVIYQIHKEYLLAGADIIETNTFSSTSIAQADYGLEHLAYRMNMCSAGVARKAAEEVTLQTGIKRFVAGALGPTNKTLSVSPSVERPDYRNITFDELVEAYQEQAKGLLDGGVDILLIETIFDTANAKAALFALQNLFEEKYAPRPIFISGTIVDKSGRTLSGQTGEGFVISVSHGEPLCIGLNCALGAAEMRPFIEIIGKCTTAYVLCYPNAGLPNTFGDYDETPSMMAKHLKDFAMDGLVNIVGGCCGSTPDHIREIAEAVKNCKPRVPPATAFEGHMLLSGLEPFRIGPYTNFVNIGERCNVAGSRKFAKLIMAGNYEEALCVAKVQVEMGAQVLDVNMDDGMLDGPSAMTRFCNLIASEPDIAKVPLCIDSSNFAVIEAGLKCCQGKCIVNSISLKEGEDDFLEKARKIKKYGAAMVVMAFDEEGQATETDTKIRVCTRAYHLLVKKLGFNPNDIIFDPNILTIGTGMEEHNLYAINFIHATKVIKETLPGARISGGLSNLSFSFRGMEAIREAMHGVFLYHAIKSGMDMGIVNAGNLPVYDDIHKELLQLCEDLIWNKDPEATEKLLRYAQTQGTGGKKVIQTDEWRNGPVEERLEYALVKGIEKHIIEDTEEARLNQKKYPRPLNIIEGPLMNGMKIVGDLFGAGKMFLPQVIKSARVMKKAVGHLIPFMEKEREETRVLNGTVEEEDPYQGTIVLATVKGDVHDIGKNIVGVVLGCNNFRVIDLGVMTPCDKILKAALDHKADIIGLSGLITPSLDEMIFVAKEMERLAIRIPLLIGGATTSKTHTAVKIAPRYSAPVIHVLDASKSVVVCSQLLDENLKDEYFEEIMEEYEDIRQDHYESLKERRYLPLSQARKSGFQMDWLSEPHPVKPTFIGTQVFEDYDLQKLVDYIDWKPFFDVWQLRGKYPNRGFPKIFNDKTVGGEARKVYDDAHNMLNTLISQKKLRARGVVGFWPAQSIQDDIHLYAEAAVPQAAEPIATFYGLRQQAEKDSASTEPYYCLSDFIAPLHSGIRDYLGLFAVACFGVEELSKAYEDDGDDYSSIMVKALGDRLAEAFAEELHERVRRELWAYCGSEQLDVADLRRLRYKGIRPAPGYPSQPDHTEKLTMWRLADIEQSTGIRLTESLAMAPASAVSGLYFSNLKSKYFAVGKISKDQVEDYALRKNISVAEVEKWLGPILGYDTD
Outline: as §1

binding result [1]: binds | binding result [2]: binds | binding result [3]: binds
B1: LZTR1-FLAG (other, human, UniProt Q8N653 1-840, looked up)
chain: MAGPGSTGGQIGAAALAGGARSKVAPSVDFDHSCSDSVEYLTLNFGPFETVHRWRRLPPCDEFVGARRSKHTVVAYKDAIYVFGGDNGKTMLNDLLRFDVKDCSWCRAFTTGTPPAPRYHHSAVVYGSSMFVFGGYTGDIYSNSNLKNKNDLFEYKFATGQWTEWKIEGRLPVARSAHGATVYSDKLWIFAGYDGNARLNDMWTIGLQDRELTCWEEVAQSGEIPPSCCNFPVAVCRDKMFVFSGQSGAKITNNLFQFEFKDKTWTRIPTEHLLRGSPPPPQRRYGHTMVAFDRHLYVFGGAADNTLPNELHCYDVDFQTWEVVQPSSDSEVGGAEVPERACASEEVPTLTYEERVGFKKSRDVFGLDFGTTSAKQPTQPASELPSGRLFHAAAVISDAMYIFGGTVDNNIRSGEMYRFQFSCYPKCTLHEDYGRLWESRQFCDVEFVLGEKEECVQGHVAIVTARSRWLRRKITQARERLAQKLEQEAAPVPREAPGVAAGGARPPLLHVAIREAEARPFEVLMQFLYTDKIKYPRKGHVEDVLLIMDVYKLALSFQLCRLEQLCRQYIEASVDLQNVLVVCESAARLQLSQLKEHCLNFVVKESHFNQVIMMKEFERLSSPLIVEIVRRKQQPPPRTPLDQPVDIGTSLIQDMKAYLEGAGAEFCDITLLLDGHPRPAHKAILAARSSYFEAMFRSFMPEDGQVNISIGEMVPSRQAFESMLRYIYYGEVNMPPEDSLYLFAAPYYYGFYNNRLQAYCKQNLEMNVTVQNVLQILEAADKTQALDMKRHCLHIIVHQFTKVSKLPTLRSLSQQLLLDIIDSLASHISDKQCAELGADI
notes: Expressed in HEK 293T, HeLa or U87 cells; used as cell lysate; also called LZTR1 wild type-FLAG; LZTR1 WT; not shown: FLAG tag at the C-terminus
